The chains are these.
T1: human CD19 on CD19(+) NALM6 acute lymphoid leukemia cells (UniProt P15391 20-556)
T1 chain: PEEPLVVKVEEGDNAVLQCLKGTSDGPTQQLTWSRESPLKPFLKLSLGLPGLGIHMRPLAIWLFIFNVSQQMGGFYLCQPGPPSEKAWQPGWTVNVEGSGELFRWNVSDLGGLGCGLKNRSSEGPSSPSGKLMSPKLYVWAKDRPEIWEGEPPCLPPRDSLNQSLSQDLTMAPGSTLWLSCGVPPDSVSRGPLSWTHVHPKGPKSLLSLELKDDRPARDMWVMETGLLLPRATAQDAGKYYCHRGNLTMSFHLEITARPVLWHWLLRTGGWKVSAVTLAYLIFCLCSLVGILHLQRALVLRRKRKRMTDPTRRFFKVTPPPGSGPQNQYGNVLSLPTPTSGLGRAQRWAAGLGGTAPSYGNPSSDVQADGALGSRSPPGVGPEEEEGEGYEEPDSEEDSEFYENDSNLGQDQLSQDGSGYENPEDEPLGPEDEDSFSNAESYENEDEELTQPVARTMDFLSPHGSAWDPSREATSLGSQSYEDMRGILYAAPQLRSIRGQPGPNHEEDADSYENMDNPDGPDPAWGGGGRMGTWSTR

B1: L3+H8b (antibody, V domains shown)
VH: QVQLQESGPGLVKPSETLSVTCTVSGVSLPDYGVSWIRQPPGKGLEWIGVIWGSETTYYNPSLKSRLTISKDTSKNQFSLKLSSVTAADTAVYYCAKHYYYGGSYAMDYWGQGTSVTVSS
VL: DIQMTQSTSSLSASVGDRVTITCRASQDISKYLNWYQQKPGKAVKLLIYHTSRLHSGVPSRFSGSGSGTDYTFTISSLQPEDIATYYCQQGNTLPYTFGGGTKLEIT
B2: L2+H3 (antibody, V domains shown)
VH: QVQLQESGPGLVKPSETLSLTCTVSGVSLPDYGVSWIRQPPGKGLEWIGVIWGSETTNYNPSLKSRLTISVDTSKNQFSLKMSSVTAADTAVYYCAKHYYYGGSYAMDYWGQGTSVTVSS
VL: DIQMTQSPSSLSASVGDRVTITCQASQDISKYLNWYQQKPGKAVKLLIYHTSRLHSGVPSRFSGSGSGTDYTLTISSLQPEDIATYFCQQGNTLPYTFGGGTKLEIT
B3: L3+H3 (antibody, V domains shown)
VH: QVQLQESGPGLVKPSETLSLTCTVSGVSLPDYGVSWIRQPPGKGLEWIGVIWGSETTNYNPSLKSRLTISVDTSKNQFSLKMSSVTAADTAVYYCAKHYYYGGSYAMDYWGQGTSVTVSS
VL: DIQMTQSTSSLSASVGDRVTITCRASQDISKYLNWYQQKPGKAVKLLIYHTSRLHSGVPSRFSGSGSGTDYTFTISSLQPEDIATYYCQQGNTLPYTFGGGTKLEIT
B4: L3+H5b (antibody, V domains shown)
VH: QVQLQESGPGLVKPSETLSLTCTVSGVSLPDYGVSWIRQPPGKGLEWIGVIWGSETTNYNPSLKSRVTISKDTSKSQVSLKLSSVTAADTAVYYCAKHYYYGGSYAMDYWGQGTSVTVSS
VL: DIQMTQSTSSLSASVGDRVTITCRASQDISKYLNWYQQKPGKAVKLLIYHTSRLHSGVPSRFSGSGSGTDYTFTISSLQPEDIATYYCQQGNTLPYTFGGGTKLEIT
B5: L3+H6b (antibody, V domains shown)
VH: QVQLQESGPGLVKPSETLSLTCTVSGVSLPDYGVSWIRQPPGKGLEWLGVIWGSETTYYNPSLKSRVTISVDNSKNQFSLKLSSVTAADTAVYYCAKHYYYGGSYAMDYWGQGTSVTVSS
VL: DIQMTQSTSSLSASVGDRVTITCRASQDISKYLNWYQQKPGKAVKLLIYHTSRLHSGVPSRFSGSGSGTDYTFTISSLQPEDIATYYCQQGNTLPYTFGGGTKLEIT

This assay has as its target T1, human CD19 on CD19(+) NALM6 acute …. Put plainly: FACS. For orientation: Flow cytometry measures light scatter and fluorescence of single cells or particles in a stream.
What is called EC50 is the concentration needed to bring the measured effect to its halfway point. Turning to B1, the EC50 is 0.19 µg/mL.

Molecule B2 returned an EC50 of 0.41 µg/mL.

With B3, a half-maximal effect (EC50) was put at 0.64 µg/mL.

Regarding B4, the response was half-maximal at 0.28 µg/mL (EC50).

B5 showed an EC50 of 0.13 µg/mL.

(Values after patent US20220177579A1 (published 2022).)
